Target: T1, SARS-CoV-2 Omicron BA.1 spike ectodomain (S trimer) (SARS-CoV-2 Omicron BA.1, S371L | S373P | S375F | S477N | E484A)
T1 construct: also called BA.1 S trimer
Assay: cryo-EM structure
Conditions: both partners purified

B1: 10-5B Fab (Fab, V domains shown)
VH: EVQLVESGGGLIQPGGSLRLSCAVSGFTVSRMSWVRQAPGKGLECVSVIYTGGNTDYADSVKGRFTISRDNSKNTLYLQMNSLRAEDTALYYCVRGSGGIHDAFDIWGQGTMVTVSS
VL: DIQMTQSPSSVSASVGDRVTITCRASQGISTWLAWYQQKPGKAPKVLINAASGLQSGVPSRFSGSGSGTDFTLTISSLQPEDFATYYCQQAHSFPPTFGPGTKLEIK
notes: also called 10-5B Fab fragments
Q: Which “stoichiometry N” value does the source give for B1 here?
A: 3 Fabs per S trimer

Source: paper PMC10107573 (Nature Communications, 2023)
